Data as given in patent US20160362487A1 (Regeneron, published 2016).

T1: human IL-33 (R&D Systems, #3625-IL-010/CF) (human, UniProt O95760 112-270)
T1 sequence (looked up): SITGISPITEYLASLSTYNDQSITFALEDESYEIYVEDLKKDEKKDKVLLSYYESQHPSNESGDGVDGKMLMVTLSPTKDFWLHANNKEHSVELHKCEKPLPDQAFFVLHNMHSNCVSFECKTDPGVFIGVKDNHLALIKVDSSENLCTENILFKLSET

T2: cynomolgus monkey IL-33 expressed with a C-terminal hexahistidine tag (cynomolgus monkey)
T2 chain: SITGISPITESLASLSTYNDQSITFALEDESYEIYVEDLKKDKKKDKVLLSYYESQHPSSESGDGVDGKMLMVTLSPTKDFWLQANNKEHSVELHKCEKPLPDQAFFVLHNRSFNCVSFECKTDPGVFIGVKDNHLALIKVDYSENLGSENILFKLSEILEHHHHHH


How the values were obtained:
[1] = biological target: T1, human IL-33 (R&D Systems, …); assay: cell-based or functional assay
[2] = biological target: T2, cynomolgus monkey IL-33 expressed with …; assay: cell-based or functional assay
[3] = biological target: T1, human IL-33 (R&D Systems, …); assay: BLI; hIL-33 pre-mixed with mAb-2 Isotype control 1
Protocol: (§1) Binding competition between a panel of different anti-IL-33 monoclonal antibodies was determined using a real time, label-free bio-layer interferometry assay on an Octet® HTX biosensor (ForteBio, A Division of Pall Life Sciences). The experiment was performed at 25° C. using a buffer of 0.01M HEPES pH7.4, 0.15M NaCl, 0.05% v/v Surfactant Tween-20, and 0.1 mg/ml BSA (HBS-ET kinetics buffer) with the plate shaking at a speed of 1000 rpm. To assess whether two antibodies were able to compete with one another for binding to human IL-33, a pre-mix assay format was used where 100 nM of human IL-33 (R&D Systems; #3625-IL-010/CF) was pre-mixed with 500 nM of different anti-IL-33 monoclonal antibodies (subsequently referred to as mAb-2) for at least 2 hours prior to running the binding competition assay. […] Following the capture step, unoccupied anti-mouse Fc polyclonal antibody and anti-human Fc polyclonal antibody on the Octet biosensors were saturated by submerging them for 4 minutes into wells containing 200 μg/mL of a non-specific monoclonal antibody with a mouse Fc or with a human Fc, respectively. Finally, the Octet biosensors were immersed for 4 minutes into wells containing the pre-mixed samples of 100 nM of human IL-33 and 500 nM of mAb-2. At the end of each cycle, the non-covalently captured anti-IL-33 antibodies along with the bound pre-complex of human IL-33 and mAb-2 were removed from the biosensors using three alternate 20 second immersions into 10 mM HCl followed by submerging into HBS-ET kinetics buffer. The biosensors were washed in HBS-ET kinetics buffer in between every step of the experiment. The real-time binding response was monitored during the binding events, and the binding response (in units of nm) at the end of every step was recorded.

[4] = biological target: T1, human IL-33 (R&D Systems, …); assay: BLI; hIL-33 pre-mixed with mAb-2 Isotype control 2
Protocol: as §1

[5] = biological target: T1, human IL-33 (R&D Systems, …); assay: SPR 25C, pH6.0 chase, mAb captured
Protocol: (§2) Equilibrium dissociation constants (KD values) for IL-33 binding to purified anti-IL-33 monoclonal antibodies were determined using a real-time surface plasmon resonance biosensor using a Biacore 4000 instrument. The Biacore sensor surface was first derivatized by amine coupling with either a polyclonal rabbit anti-mouse antibody (GE, # BR-1008-38) or with a monoclonal mouse anti-human Fc antibody (GE, # BR-1008-39) to capture anti-IL-33 monoclonal antibodies expressed with mouse or with human IgG4 constant regions, respectively. All Biacore binding studies were performed in 0.01M ADA pH 7.4, 0.15M NaCl, 3 mM EDTA, and 0.05% v/v Surfactant Tween-20 (ABS-ET running buffer). […] Association of either hIL-33 or MfIL-33-6His to the captured monoclonal antibody was monitored for 4 minutes and their dissociation in ABS-ET running buffer was monitored for 10 minutes. The effect of reduced pH on the binding of each anti-IL-33 antibody to either hIL-33 or MfIL-33-6His was studied using an in-line pH chase assay format in 0.01M ADA pH 6.0, 0.15M NaCl, 3 mM EDTA, and 0.05% v/v Surfactant Tween-20 (ABS-ET pH6 buffer). To achieve this, association of either hIL-33 or MfIL-33-6His to the captured monoclonal antibody was monitored for 4 minutes in ABS-ET running buffer. Following a 30 second dissociation of either hIL-33 or MfIL-33-6His in ABS-ET running buffer, ABS-ET pH6 buffer was injected for 3 minutes, and the analyte dissociation under the low-pH conditions was measured. All the binding kinetic experiments were performed at both 25° C. and 37° C. Kinetic association (kₐ) and dissociation (kd) constants were determined by fitting the real-time sensorgrams to a 1:1 binding model using Scrubber 2.0c curve fitting software. Binding dissociation equilibrium constants (KD) and dissociative half-lives (t½) were calculated from the kinetic rate constants as: […]

[6] = biological target: T2, cynomolgus monkey IL-33 expressed with …; assay: SPR 25C, pH6.0 chase, mAb captured
Protocol: as §2

| Binder | IC50, inhibition of 10 pM hIL-33 activation of HEK293/hST2/NFkB-luciferase cells [1] | IC50, inhibition of 5 pM MfIL-33-6His activation of HEK293/hST2/NFkB-luciferase cells [2] | mAb-1 Binding to the Pre-complex of mAb-2 & hIL-33 [3] | mAb-1 Binding to the Pre-complex of mAb-2 & hIL-33 [4] | koff [5] | t½ [5] | t½ Ratio (pH 7.4/pH 6.0) [5] | koff [6] | t½ [6] | t½ Ratio (pH 7.4/pH 6.0) [6] |
| --- | --- | --- | --- | --- | --- | --- | --- | --- | --- | --- |
| H1M9566N (antibody, mouse IgG1, V domains shown, Human variable domains, mouse IgG1 Fc (H1M)) VH: EVQLLESGGDLVQPGGSLRLSCAASGFTFSSYAMSWVRQAPGKGLEWVSVISGSGSSTDYADSVKGRFTISRDNSRDTLHLQMNSLRAEDTAVYYCAKTFYYFYGLDVWGQGTTVTVSS VL: DIQMTQSPSSLSASLRDRVTITCRASQGISNYLAWYQQKPGKVPKVLIYAASTLQSGVPSRFSGSGSGTVFTLTISSLQTEDVATYYCQKYSSAPFTFGPGTKVDIK | 9.5e-10 M | 1.5e-09 M | 0.06 nm | 0.1 nm | 0.00011 s⁻¹ | 105 min | 11 | 0.000126 s⁻¹ | 91 min | 1.3 |
| H4H9640P (antibody, human IgG4, V domains shown, Human IgG4 Fc (H4H)) VH: QVQLQESGPGLVKPSETLSLTCTVSGGSISSYYWSWIRQPPGKGLELIGYIYYSGSTNYNPSLKSRVTISVDTSKNHFSLKLSSVTAADTAVYYCARSQYTSSWYGSFDIWGQGTMVTVSS VL: DIQMTQSPSSVSASVGDRVTITCRASQGISTWLAWFQQKPGKAPKLLIYAASTLQGGVPSRFSGSGSGPEFTLTISSLQPEDFATYYCQQANSFPWTFGQGTKVEIK | 3e-11 M | 1.4e-08 M | 0.18 nm | 0.1 nm | 0.000657 s⁻¹ | 18 min | 2.8 | 0.000501 s⁻¹ | 23 min | 0.4 |
| H1M9568N (antibody, mouse IgG1, V domains shown, Human variable domains, mouse IgG1 Fc (H1M)) VH: QVLLVQSGAEVKKPGATVKVSCKASGSTFTGYYMHWVRQAPGQGLEWMGWINPNNGGTNYAQKFQGRVTMTRDTSISTAYMELSRLRSDDTAVYYCARELRYNWKSWGQGTLVTVSS VL: EIVLTQSPGTLSLSPGERVTLSCRASQSVGRPYLAWYQQIPGQAPRLLIYGASSRATDIPDRFSGNGSGTDFTLTISRLEPEDFAVYYCQQYDNSPYTFGQGTRLEIK | 2.5e-10 M | 3.5e-09 M | 0.05 nm | 0.1 nm | 0.000178 s⁻¹ | 65 min | 1.4 | 0.000302 s⁻¹ | 38 min | 1.2 |
| H1M9565N (antibody, mouse IgG1, V domains shown, Human variable domains, mouse IgG1 Fc (H1M)) VH: QVTLKESGPVLVKPTESLTLTCSVSGFSLSNVRMGVSWIRQSPGKALEWLAHIFSNDEKSYTTSLKTRLTISKDTSRSQVVLTMTDMDPGDTATYYCARIRNLAFNYWGQGTLVTVSS VL: not shown | 2.9e-08 M | 1.7e-08 M | -0.01 nm | 0.03 nm | – | – | – | 0.000143 s⁻¹ | 81 min | 2 |
| H4H9629P (antibody, human IgG4, V domains shown, Human IgG4 Fc (H4H)) VH: EVQLVESGGGLVQPGGSLRLSCAASGFTFRSFAMSWVRQAPGKGLELVSDLRTSGGSTYYADSVKGRLTISRDNSKNTLYLQMNSLRAEDTAVYYCAKSHYSTSWFGGFDYWGQGTLVTVSS VL: DIQMTQSPSSVSASVGDRVTITCRASQGFSSWLAWYQQKPGKAPKLLIYAASSLQSGVPSRFSGSGSGTDFTLTITNLQPEDFATYYCQQANSFPLTFGGGTKVEIK | 1.3e-11 M | 5.5e-08 M | 0.22 nm | 0.14 nm | 0.00128 s⁻¹ | 9 min | 5.7 | 0.0358 s⁻¹ | 0.3 min | 2.7 |
| H4H9659P (antibody, human IgG4, V domains shown, Human IgG4 Fc (H4H)) VH: QVQLVQSGAEVKKPGASVKVSCKASGYTFNSYGISWVRQAPGQGLEWMGWISSHNGNSHYVQKFQGRVSMTTDTSTSTAYMELRSLRSDDTAVYYCARHSYTTSWYGGFDYWGQGTLVTVSS VL: DIQMTQSPSSVSASVGDRVTITCRASQGFSSWLAWYQQKPGKAPQLLIYAASSLQSGVPSRFSGSGSGSDFTLTISSLQPEDFATYYCQQANSFPLTFGGGTKVEIK | 4.7e-11 M | 3.3e-09 M | 0.17 nm | 0.09 nm | 0.000664 s⁻¹ | 17 min | 3.9 | 0.000123 s⁻¹ | 94 min | 0.3 |
| H4H9633P (antibody, human IgG4, V domains shown, Human IgG4 Fc (H4H)) VH: EVQLVESGGGLVQPGGSLRLSCAASGFTFSSYVMSWVRQAPGKGLEWVSSISGNGGSTNYADSVKGRFTISRDNSKNTLFLEMNSLRAEDTAVYYCAKSLGTTTTFLGFDYWGQGTLVTVSS VL: DIQMTQSPSSVSASVGDRVTITCRASQGISSWLAWYQQKPGKAPKLLIYAASSLQSGVPSRFSGSGSGTYFTLTISSLQPEDFATYYCQQANSFPLTFGGGTKVEIK | 2.2e-10 M | 1.3e-07 M | 0.21 nm | 0.15 nm | 0.00081 s⁻¹ | 14 min | 2.9 | 0.00287 s⁻¹ | 4 min | 0.3 |
